Consider 1 substance from PMC2481302.

This assay concerns the target human purified platelet factor 4/CXCL4 (human). As to the kind of experiment: cell attachment assay; αvβ3-CHO and mock-transfected CHO cells plated on microtiter wells coated with CXCL4 or CXCL4/CTF at the indicated concentrations; 60 min at 37°C in serum-free medium with 0.5% BSA; attached cells stained with Coomassie blue, absorbance at 620 nm; also with 0.25 mM Mn2+ or 2 mM Mg2+.

As for “human αvβ3 integrin on CHO cells (αvβ3-CHO, clone A06) (from UniProt P06756 31-1048; P05106 27-788) (receptor)”, the increase of cell attachment with Mn2+ or Mg2+ against no added cation was 25%.
